Reference: the DeepSol protein solubility set

Assay: soluble on expression in E. coli; label from the status in PepcDB or PDB records

Row | Sequence | soluble on expression in E. coli
1 | MGSDKIHHHHHHMWFRSKPGKSRAAAKGRDVQSTPKASTDVVLERVRLPVDLLQPGMKVVKLDRPWTEVPVLFQGFTLQTEAEARVLRQYCAWVVVEDEAERLAPVLDQIPHLKQRTTEPLQETRTLEQELPRAADTWSRTQQFVEKLIRDIEQNNDLELASARPLIRSCVDSVKTNASAMFWMARIKHRDAYTAEHCLRVAILTVAFARFLGLPEDDLEVAGMCGLLHDIGKLRVPDEILNKPGPLSPQEYEVMRKHTTLGHELLKQDPSLDPIISDVTLHHHERIDGRGYPQQLPEWQISRFARLIAIVDAYDAMTSDRCYRDGMSPADAVRILYKNRAQQFDADMVEAFIRMIGIYPPGSLVELNTGEVALVVSTHPGRKLKPKVEILLDNNKHPVTPRVMDLGSQTTTDGPVREIKAPLPDGAFGISLEGRVKQLMAKTIANHS | not soluble
2 | DKFNQFINRVLSHEGGYANHPKDPGGETNWGITKRTAQANGYNGSMRAMTREQAISIYRKAFWERYRADQMPEAVAFQFFDACVNHGYGNAARMLQRAAGVPDDGVIGAVSLKAINSLPENDLLLRFNAERLVFYTKLGTFTSFGKGWVRRVAQN | not soluble
3 | MKLINTTWTHQELVNNQLDNTDAFLVETYSAGNTDVVFTQAPKHYELLISNKHRAVKDNELEVIREFFLKRKIDKDIVLMDKLRTVHTDKLIEISFPTTV | soluble
4 | MAHHHHHHMADYNAAGADTAVVDDNVPPGITTKQDEIIQYVAKYVVASCDGARYQDKVRTRTKHNPYFDFLNAKHPYHQYYQYLLESYRHWMRNSEAVGAGTWGGGVDATQGQGQQQQWNEEDYYQYYGAYAGQASGIEFQGNAAGQLG | not soluble
5 | MASTFNPRECKLSKQEGQNYGFFLRIEKDTDGHLIRVIEEGSPAEKAGLLDGDRVLRINGVFVDKEEHAQVVELVRKSGNSVTLLVLDGDSYEKAVKNQVDLKELDQSQREAALNDKKPGPGMNGAVEPCAQPRLCYLVKEGNSFGFSLKTIQGKKGVYLTNIMPQGVAMKAGVLADDHLIEVNGENVENASHEEVVEKVTKSGSRIMFLLVDKETARCHSEQKTQFKRETASLKLLPHQPRVVVIKKGSNGYGFYLRAGPEQKGQIIKDIEPGSPAEAAGLKNNDLVVAVNGKSVEALDHDGVVEMIRKGGDQTTLLVLDKEAESIYSLARFSPLLYCQSQELPNGSVKEGPAPIPAPLEATGSEPTEDAEGHKPKLCRLLKEDDSYGFHLNAIRGQPGSFVKEVQQGGPADKAGLENEDVIIEVNGENVQEEPYDRVVERIKSSGKHVTLLVCGKMAYSYFQAKKIPIVSSMAEPLVAGPDEKGETSAESEHDAHPAKDRTLSTASHSSSNSEDTEM | soluble
6 | MSLSRKRKSYSAEFKTRVVLELLGGEETVAQIASKYEITPKSLIDWKKQFLENASLVFDVGSATKAYKDEIEELKTENDALAKKLGKTTIERDWAVGKLKSLGLSNKKDLVTPKLKNLSMARQCEIIDLNRSTLYYEPKPISDNDLKIMKRIDEIYTDISSTYGYRFMHRQLLEDGFSIGVNKVNKLMNTMGIQAIFPKKKRHTSIKNYKHKIYPYLLRELEINRANQVWSGDITYIPIKGGFVYLCAIIDWHSKTILSWKISTTMDTSLVTDVLKEAIEKYDIPVIFNSDQGSQYTSHEHTELLKKHNIQISMNGKGRSIDNIAIERFFRTLKYDEIYINEYSSISDLRFKVSRYINFYNHNRFHSALNYQKPMNVYLEGLKNVAEGHHHHHH | not soluble
7 | MGSDKIHHHHHHQPGATGGTWTCCPVSWRAFQSNCYFPLNDNQTWHESERNCSGMSSHLVTINTEAEQNFVTQLLDKRFSYFLGLADENVEGQWQWVDKTPFNPHTVFWEKGESNDFMEEDCVVLVHVHEKWVWNDFPCHFEVRRICKLPGITFNWKPSK | not soluble
8 | MGSSHHHHHHSQDPMLSKDIIKLLNEQVNKEMNSSNLYMSMSSWCYTHSLDGAGLFLFDHAAEEYEHAKKLIIFLNENNVPVQLTSISAPEHKFEGLTQIFQKAYEHEQHISESINNIVDHAIKSKDHATFNFLQWYVAEQHEEEVLFKDILDKIELIGNENHGLYLADQYVKGIAKSRKS | soluble
9 | MGSDKIHHHHHHMPINKLALVRYKTIDSCLQNRFRKWTLEDLMEACSDALYEYEGMTKGISRRTIQLDIQNMRSEKLGYNAPIIVTDKKFYSYEDKGYSITNSPLTQQDLGTLVEVLDVLKQFKGFGYFQELTGMVTRLEDKLYTHQHKGKSYIDFEKNELLKGLQHIDLLHKAIINKKTVDILYQSFKAASAQNITFYPYLLKEYRNRWFILGCNKRTKATMILALDRIEQFKELRSEKYMKPDFDVATYFDDVIGVSKMPNQEPQLIVCKISKEHAPYIITKPIHASQQIIRGEKDGTVFSIHVIWNFELERELLGFGEQLQVLAPRRIQGKLRARMKRAVAAYESEKKE | not soluble
10 | MAEQQQEQQIRVRIPRKEENEILGIIEQMLGASRVRVRCLDGKTRLGRIPGRLKNRIWVREGDVVIVKPWEVQGDQKCDIIWRYTKTQVEWLKRKGYLDELL | soluble
11 | MAHHHHHHMKKKVELKFLGGLESYLEDKSKNVVTLEIESEKLSFENLIAYIRNHILVDRKDVFADHVLCDGTEFCQVVVDHVERKNYNLNEKAKIKPGIIVLINEYDWEIMHMYEYQIRDGDKLCFLSTLHGG | not soluble
12 | MGSDKIHHHHHHMIIENLSQLYPKGYLSKTIGSEATYSIPVDDQFFIVNKAFLSIKEQHLLEALFPISENPTITGNHPWFSYLFQQAKLPAEGTFRMLQIQTNVTKELQAEWQFNLTKMFPDTVDCFSPSNNMYILVEEQSKNTFQQEEIQGIFLTLDTDFDCTSAVFVGNFYSSEDILRRCFHEEQRIFSEELNSSSRTTVFSLTDVALHYFTKEAMSQNVLVEYYRRLLNKDTDIQPIISALWKNQGNISSTAKDLFMHRNTLHYRLEKFFEQTGLSLKKMDDLIFCYLLLRK | not soluble
13 | MSLKVAVVGLGDISHVHIHAIQNSTKAQLVAVCDENEKLSQQVPHVNYYNDLQTMIDSETLDCVHICLPHYLHVSATTTCVENGINVLQEKPLAVNAKEGLELVKLQRKYPNIKIGICFQNRYNATFQALQEIVESKTYGEVIGVKGLVTWFRPESYYTDKPWRGQMATAGGGVLINQSIHTLDLIQLLCGKIASIKGTVSQLLDYDIEVEDTASAHIKFENKANGMFFATNANFGNSNVELQIIFENEKFTIKDNILTRFNEAGEKIKIAEDEKMTGNKTYYGPSHGKLINAFYDCINNDSNNYVHPKDALTSIAMIDAIQKSSESLKTVQFDSEGHHHHHH | soluble
14 | MGSDKIHHHHHHMRDMVPRLTKSYEASSQPIASIRSSVLSVVVGALEATGVSTDHLLAQHGLSRLTLDDPYNPVSLKNYVAFFEDAARMSSQPMLGIRLGNAIKAEDLGPVGVLYTMMQTLRSAIVRFSHFFPALQGSTKLGLSVRGDATWLEYQIEDQTIWPRRQDTEFTLALICALTRSRLGRGWAPEEIHFEHSAPTNGRDMAHFFGAVIRFDQPINRMLIRTEDLDLPFASANPAAIAIIEQHLNDLIGDGVVPAFEDAVLQAIMRCMKRGEVTLELVASRLGIGPRTLQRRLAATGRTFREIVQQQRHGTATVLLKDERIALGVVAGNLGYADTATMSRAFKTWTGQSPRAYSKKNRREAR | not soluble
15 | MSLESIKKRAYEIENELGKEIEEVCNFIFNNPELGEEEYISSKYLVEKMKEYGFDTVYPYCNMETAFRAELGDNDGPTIAFLAEYDALPGYGENKEPAHACGHNWIAASTLGACIVLSKLKENFKGKIVLIGTPAEETTGGKCDLVKAGAFDDVDVSYQMHIEAFNNINCKALAIDSLEFSFEGVSAHAASHPHMGVNALDAVQLTFAGINALRQHVKSDVRIHGIVSNGGEAPNIVPEKAACKFFVRAAERSYLDEVTKKVINCAKGAELMTGAKLSYRYFENSFDNIINNKVLQKITKNNLIEAGITDILEGKDGPVGSTDIGNVSQVCPTMYTEIALDISPMVYVHEKEFLNYANSEEAYDKLHKAVKAMVGCALEIYLEDGLLDEIKKNHLNEGHHHHHH | soluble
16 | MVYVKSLLRRADNFMYIVKKSSEARAALLVDLVNEEDYKELADKENIDITAVLTTHHHYDHCGGNEGFRRQFPNVMILGGDSRIPAMDRHVKHGDMAEFAGLQIKCLSTPCHTSGHICYHITNPAADSTSPGVVFTGDTLFIAGCGRFFEGTAPQMDVALNEILKNLPVETQIFPGHEYTVANLKFACHVEPGNEKAAQKLEWAQRQIEQGGFTVPSTVAEEKATNPFMRVRESEEIQKSIGTCDAVVGMAKLREMKNKF | not soluble
